{
  "source": "paper PMC9259494",
  "assay_in_all_cases": "cryo-EM structure; single-particle cryo-EM of the co-purified R388 T4SS complex (VirB3-VirB10); 50 mM HEPES pH 7.6, 200 mM sodium acetate, 0.1% digitonin, 0.05 mM TDAO; maps of O-layer, I-layer, stalk, IMC protomer near-atomic, arches from the 6.18 Å map",
  "key": {"[1]": {"biological_target": "TrwK/VirB4 (R388 T4SS) (plasmid R388)"}, "[2]": {"biological_target": "TrwG/VirB8 (R388 T4SS) (plasmid R388)"}, "[3]": {"biological_target": "TrwE/VirB10 with Strep tag (R388 T4SS) (plasmid R388)"}, "[4]": {"biological_target": "TrwJ/VirB5 (R388 T4SS) (plasmid R388)"}, "[5]": {"biological_target": "TrwF/VirB9 (R388 T4SS) (plasmid R388)"}, "[6]": {"biological_target": "TrwI/VirB6 (R388 T4SS) (plasmid R388)"}},
  "data": [
    {"substance": "TrwK/VirB4 (R388 T4SS) (natural protein)", "values": [
      {"measurement": "stoichiometry N", "setting": "[1]", "value": 12}
    ]},
    {"substance": "TrwG/VirB8 (R388 T4SS) (natural protein)", "values": [
      {"measurement": "stoichiometry N", "setting": "[2]", "value": 18}
    ]},
    {"substance": "TrwE/VirB10 with Strep tag (R388 T4SS) (natural protein)", "values": [
      {"measurement": "stoichiometry N", "setting": "[3]", "value": 14}
    ]},
    {"substance": "TrwJ/VirB5 (R388 T4SS) (natural protein)", "values": [
      {"measurement": "stoichiometry N", "setting": "[4]", "value": 5}
    ]},
    {"substance": "TrwF/VirB9 (R388 T4SS) (natural protein)", "values": [
      {"measurement": "stoichiometry N", "setting": "[5]", "value": 16}
    ]},
    {"substance": "TrwI/VirB6 (R388 T4SS) (natural protein)", "values": [
      {"measurement": "stoichiometry N", "setting": "[6]", "value": 5}
    ]}
  ]
}
